# Data from patent US20240270834A1 (Hoffmann-La Roche, published 2024).
# Residue numbers refer to the chain shown, from its start.
# T1: VEGF (UniProt P15692-9 27-147, limits assumed)
# T1 sequence (looked up): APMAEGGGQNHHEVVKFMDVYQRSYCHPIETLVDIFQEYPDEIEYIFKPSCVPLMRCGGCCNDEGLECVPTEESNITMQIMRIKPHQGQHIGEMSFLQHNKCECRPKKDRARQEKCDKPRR
# T2: angiopoietin-2 (UniProt O15123 68-496, limits assumed)
# T2 sequence (looked up): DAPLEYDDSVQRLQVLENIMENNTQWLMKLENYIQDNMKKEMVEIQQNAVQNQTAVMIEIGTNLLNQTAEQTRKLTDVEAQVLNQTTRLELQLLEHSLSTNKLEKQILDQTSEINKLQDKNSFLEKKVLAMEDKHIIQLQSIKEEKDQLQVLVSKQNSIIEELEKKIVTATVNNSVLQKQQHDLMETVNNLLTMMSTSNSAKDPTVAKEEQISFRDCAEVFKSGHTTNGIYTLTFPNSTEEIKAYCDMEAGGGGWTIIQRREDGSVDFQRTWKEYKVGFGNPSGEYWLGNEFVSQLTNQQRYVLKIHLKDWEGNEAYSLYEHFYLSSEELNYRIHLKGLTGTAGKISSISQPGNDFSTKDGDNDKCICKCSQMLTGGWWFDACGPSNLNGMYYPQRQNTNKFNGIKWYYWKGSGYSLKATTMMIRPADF
# B1: Ophthabody variant VII (bispecific antibody)
# chain 1: not shown
# chain 2: EVQLVESGGGLVQPGGSLRLSCAASGYDFTHYGMNWVRQAPGKGLEWVGWINTYTGEPTYAADFKRRFTFSLDTSKSTAYLQMNCLRAEDTAVYYCAKYPYYYGTSHWYFDVWGQGTLVTVSSGGGPREPQVYTLPPCRDELTKNQVSLWCLVKGFYPSDIAVEWESNGQPENNYKTTPPVLDSDGSFFLYSKLTVDKSRWQQGNVFSCSVMHEALCNHYTQKSLSLSGGGDIQLTQSPSSLSASVGDRVTITCSASQDISNYLNWYQQKPGKAPKVLIYFTSSLHSGVPSRFSGSGSGTDFTLTISSLQPEDFATYYCQQYSTVPWTFGQGTKVEIKGS
# B2: Ophthabody variant III (bispecific antibody)
# chain 1: not shown
# chain 2: EVQLVESGGGLVQPGGSLRLSCAASGYDFTHYGMNWVRQAPGKGLEWVGWINTYTGEPTYAADFKRRFTFSLDTSKSTAYLQMNSLRAEDTAVYYCAKYPYYYGTSHWYFDVWGQGTLVTVSSGGGGSPREPQVYTLPPCRDELTKNQVSLWCLVKGFYPSDIAVEWESNGQPENNYKTTPPVLDSDGSFFLYSKLTVDKSRWQQGNVFSCSVMHEALHNHYTQKSLSLSGGGGSDIQLTQSPSSLSASVGDRVTITCSASQDISNYLNWYQQKPGKAPKVLIYFTSSLHSGVPSRFSGSGSGTDFTLTISSLQPEDFATYYCQQYSTVPWTFGQGTKVEIKAS
# B3: Ophthabody variant IV (bispecific antibody)
# chain 1: not shown
# chain 2: B2 chain 2 with A343G
# B4: Ophthabody variant II (bispecific antibody)
# chain 1: not shown
# chain 2: B1 chain 2 with C85S, C217H
# B5: Ophthabody variant I (bispecific antibody)
# chain 1: not shown
# chain 2: B1 chain 2 with C85S, C217H, G339A
# B6: Ophthabody variant VI (bispecific antibody)
# chain 1: not shown
# chain 2: B1 chain 2 with C85S, G125P, G126P, P127S, C217H, G229P, G230P
# B7: Ophthabody variant V (bispecific antibody)
# chain 1: not shown
# chain 2: B1 chain 2 with C85S, G124P, C217H, G230P
# Biological target: T1, VEGF
# Test: cell-based or functional assay
row,Binder,"EC50, luciferase assay (reporter gene assay) [nM]"
1,B1,2.1

# Biological target: T2, angiopoietin-2
# Test: cell-based or functional assay
row,Binder,"EC50, kinase receptor activation assay [nM]"
1,B2,19
2,B3,13
3,B4,18
4,B5,21
5,B6,18
6,B7,14
7,B1,23
